Measurements taken from patent US20110160440A1 (GENENCOR INTERNATIONAL, published 2011).

T1: CEA (carcinoembryonic antigen, Biodesign Intl., Saco, Me.) (UniProt P06731 35-685)
T1 construct: also called immobilized CEA
T1 sequence: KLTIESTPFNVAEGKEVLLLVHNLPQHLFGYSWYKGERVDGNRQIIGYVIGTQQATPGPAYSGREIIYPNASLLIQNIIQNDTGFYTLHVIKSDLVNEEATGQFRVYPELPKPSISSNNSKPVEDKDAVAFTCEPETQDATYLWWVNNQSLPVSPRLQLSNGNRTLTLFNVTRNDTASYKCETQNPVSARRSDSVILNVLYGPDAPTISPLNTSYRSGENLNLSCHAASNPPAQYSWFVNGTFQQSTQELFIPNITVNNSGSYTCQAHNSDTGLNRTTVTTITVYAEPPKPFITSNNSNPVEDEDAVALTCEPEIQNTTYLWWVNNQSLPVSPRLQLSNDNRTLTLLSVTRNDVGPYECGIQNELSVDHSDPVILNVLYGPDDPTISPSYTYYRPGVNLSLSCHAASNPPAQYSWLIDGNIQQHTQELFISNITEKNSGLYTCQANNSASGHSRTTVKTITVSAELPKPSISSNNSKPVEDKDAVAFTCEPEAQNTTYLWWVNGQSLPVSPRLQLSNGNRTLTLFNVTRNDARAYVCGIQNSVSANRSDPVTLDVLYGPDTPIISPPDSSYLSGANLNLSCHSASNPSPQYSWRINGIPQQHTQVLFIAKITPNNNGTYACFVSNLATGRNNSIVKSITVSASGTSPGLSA

B1: NA08.51 (scFv)
chain: QVQLQQSGAELVKSGGSVKLSCTASGFNIKDSYMHWVRQGPEQGLEWIGWIDPENGDTEYAPKFQGKATFTTDTSSNTAYLQLSSLTSEDTAVYYCNEGTPTGHYYFDYWGQGTTVTVSSGGGGSGGGGSGGGGSENVLTQSPAIVSASPGEKVTITCSASSSVSAMHWFQQKPGTSPKLVIYSTSNLASGVPARFSGSGSGTSYSLTISRMEAEDAATYYCQQRSSYPLTFGAGTKLELKRAATPVSEKQLAEVVANTITPLMKAQSVPGMAVAVIYQGKPHYYTFGKADIAANKPVTPQTLFELGSISKTFTGVLGGDAIARGEISLDDAVTRYWPQLTGKQWQGIRMLDLATYTAGGLPLQVPDEVTDNASLLRFYQNWQPQWKPGTTRLYANASIGLFGALAVKPSGMPYEQAMTTRVLKPLKLDHTWINVPKAEEAHYAWGYRDGKAVRVSPGMLDAQAYGVKTNVQDMANWVMANMAPENVADASLKQGIALAQSRYWRIGSMYQGLGWEMLNWPVEANTVVETSFGNVALAPLPVAEVNPPAPPVKASWVHKTGSTGGFGSYVAFIPEKQIGIVMLANTSYPNPARVEAAYHILEALQ
B2: NA08.64 (scFv)
chain: QVQLQQSGAELVKSGGSVKLSCTASGFNIKDSYMHWVRQGPEQGLEWIGWIDPENGDTEYAPKFDGKATFTTDTSSNTAYLQLSSLTSEDTAVYYCNEGTPTGPYYFDYWGQGTTVTVSSGGGGSGGGGSGGGGSENVLTQSPAIVSASPGEKVTITCSASSSVSAMHWFQQKPGTSPKLVIYSTSNLASGVPARFSGSGSGTSYSLTISRMEAEDAATYYCQQRSSYPLTFGAGTKLELKRAATPVSEKQLAEVVANTITPLMKAQSVPGMAVAVIYQGKPHYYTFGKADIAANKPVTPQTLFELGSISKTFTGVLGGDAIARGEISLDDAVTRYWPQLTGKQWQGIRMLDLATYTAGGLPLQVPDEVTDNASLLRFYQNWQPQWKPGTTRLYANASIGLFGALAVKPSGMPYEQAMTTRVLKPLKLDHTWINVPKAEEAHYAWGYRDGKAVRVSPGMLDAQAYGVKTNVQDMANWVMANMAPENVADASLKQGIALAQSRYWRIGSMYQGLGWEMLNWPVEANTVVETSFGNVALAPLPVAEVNPPAPPVKASWVHKTGSTGGFGSYVAFIPEKQIGIVMLANTSYPNPARVEAAYHILEALQ
B3: NA08.24 (scFv)
chain: QVQLQQSGAELVKSGGSVKLSCTASGFNIKDSYMHWVRQGPEQGLEWIGWIDPENGDTEYAPKFQGKATFTTDTSSNTAYLQLSSLTSEDTAVYYCNEGTPDGPYYFDYWGQGTTVTVSSGGGGSGGGGSGGGGSENVLTQSPAIVSASPGEKVTITCSASSSVSYMHWFQQKPGTSPKLVIYSTSNLASGVPARFSGSGSGTSYSLTISRMEAEDAATYYCQQRDSYPLTFGAGTKLELKRAATPVSEKQLAEVVANTITPLMKAQSVPGMAVAVIYQGKPHYYTFGKADIAANKPVTPQTLFELGSISKTFTGVLGGDAIARGEISLDDAVTRYWPQLTGKQWQGIRMLDLATYTAGGLPLQVPDEVTDNASLLRFYQNWQPQWKPGTTRLYANASIGLFGALAVKPSGMPYEQAMTTRVLKPLKLDHTWINVPKAEEAHYAWGYRDGKAVRVSPGMLDAQAYGVKTNVQDMANWVMANMAPENVADASLKQGIALAQSRYWRIGSMYQGLGWEMLNWPVEANTVVETSFGNVALAPLPVAEVNPPAPPVKASWVHKTGSTGGFGSYVAFIPEKQIGIVMLANTSYPNPARVEAAYHILEALQ
B4: NA08.45 (scFv)
chain: QVQLQQSGAELVKSGGSVKLSCTASGFNIKDSYMHWVRQGPEQGLEWIGWIDPENGDTEYAPKFQGKATFTTDTSSNTAYLQLSSLTSEDTAVYYCNEGTPDGPYYFDYWGQGTTVTVSSGGGGSGGGGSGGGGSENVLTQSPAIVSASPGEKVTITCSASSSVSAMHWFQQKPGTSPKLVIYSTSNLASGVPARFSGSGSGTSYSLTISRMEAEDAATYYCQQRSSYPLTFGAGTKLELKRAATPVSEKQLAEVVANTITPLMKAQSVPGMAVAVIYQGKPHYYTFGKADIAANKPVTPQTLFELGSISKTFTGVLGGDAIARGEISLDDAVTRYWPQLTGKQWQGIRMLDLATYTAGGLPLQVPDEVTDNASLLRFYQNWQPQWKPGTTRLYANASIGLFGALAVKPSGMPYEQAMTTRVLKPLKLDHTWINVPKAEEAHYAWGYRDGKAVRVSPGMLDAQAYGVKTNVQDMANWVMANMAPENVADASLKQGIALAQSRYWRIGSMYQGLGWEMLNWPVEANTVVETSFGNVALAPLPVAEVNPPAPPVKASWVHKTGSTGGFGSYVAFIPEKQIGIVMLANTSYPNPARVEAAYHILEALQ
B5: NA05.6 (CAB1.1) (scFv)
chain: QVKLQQSGAELVKSGGSVKLSCTASGFNIKDSYMHWLRQGPEQGLEWIGWIDPENGDTEYAPKFQGKATFTTDTSSNTAYLQLSSLTSEDTAVYYCNEGTPTGPYYFDYWGQGTTVTVSSGGGGSGGGGSGGGGSENVLTQSPAIMSASPGEKVTITCSASSSVSYMHWFQQKPGTSPKLVIYSTSNLASGVPARFSGSGSGTSYSLTISRMEAEDAATYYCQQRSSYPLTFGAGTKLELKRAATPVSEKQLAEVVANTITPLMKAQSVPGMAVAVIYQGKPHYYTFGKADIAANKPVTPQTLFELGSISKTFTGVLGGDAIARGEISLDDAVTRYWPQLTGKQWQGIRMLDLATYTAGGLPLQVPDEVTDNASLLRFYQNWQPQWKPGTTRLYANASIGLFGALAVKPSGMPYEQAMTTRVLKPLKLDHTWINVPKAEEAHYAWGYRDGKAVRVSPGMLDAQAYGVKTNVQDMANWVMANMAPENVADASLKQGIALAQSRYWRIGSMYQGLGWEMLNWPVEANTVVETSFGNVALAPLPVAEVNPPAPPVKASWVHKTGSTGGFGSYVAFIPEKQIGIVMLANTSYPNPARVEAAYHILEALQ
notes: also called pNA05.6
B6: NA05.9 (scFv)
chain: QVQLQQSGAELVRPGTSVKLSCTASGFNIKDSYMHWVRQGPGQGLEWIGWIDPENGDTEYAPKFQGKATFTTDTSSNTAYLQLSSLTSEDTAVYYCNEGTPTGPYYFDYWGQGTTVTVSSGGGGSGGGGSGGGGSQNVLTQSPAIVSASPGEKVTITCSASSSVSYMHWFQQKPGTSPKLVIYSTSNLASGVPARFSGSGSGTSYSLTISRMEAEDAATYYCQQRSSYPLTFGGGTKLELKRAATPVSEKQLAEVVANTITPLMKAQSVPGMAVAVIYQGKPHYYTFGKADIAANKPVTPQTLFELGSISKTFTGVLGGDAIARGEISLDDAVTRYWPQLTGKQWQGIRMLDLATYTAGGLPLQVPDEVTDNASLLRFYQNWQPQWKPGTTRLYANASIGLFGALAVKPSGMPYEQAMTTRVLKPLKLDHTWINVPKAEEAHYAWGYRDGKAVRVSPGMLDAQAYGVKTNVQDMANWVMANMAPENVADASLKQGIALAQSRYWRIGSMYQGLGWEMLNWPVEANTVVETSFGNVALAPLPVAEVNPPAPPVKASWVHKTGSTGGFGSYVAFIPEKQIGIVMLANTSYPNPARVEAAYHILEALQ
B7: NA05.10 (scFv)
chain: QVQLQQSGAELVRSGTSVKLSCTASGFNIKDSYMHWVRQGPEQGLEWIGWIDPENGDTEYAPKFQGKATFTTDTSSNTAYLQLSSLTSEDTAVYYCNEGTPTGPYYFDYWGQGTTVTVSSGGGGSGGGGSGGGGSENVLTQSPAIMSASPGEKVTITCSASSSVSYMHWYQQKPGTSPKLVIYSTSNLASGVPARFSGSGSGTSYSLTISRMEAEDAATYYCQQRSSYPLTFGAGTKLELKRAATPVSEKQLAEVVANTITPLMKAQSVPGMAVAVIYQGKPHYYTFGKADIAANKPVTPQTLFELGSISKTFTGVLGGDAIARGEISLDDAVTRYWPQLTGKQWQGIRMLDLATYTAGGLPLQVPDEVTDNASLLRFYQNWQPQWKPGTTRLYANASIGLFGALAVKPSGMPYEQAMTTRVLKPLKLDHTWINVPKAEEAHYAWGYRDGKAVRVSPGMLDAQAYGVKTNVQDMANWVMANMAPENVADASLKQGIALAQSRYWRIGSMYQGLGWEMLNWPVEANTVVETSFGNVALAPLPVAEVNPPAPPVKASWVHKTGSTGGFGSYVAFIPEKQIGIVMLANTSYPNPARVEAAYHILEALQ
B8: NA05.8 (scFv)
chain: QVKLQQSGAELVKSGTSVKLSCTASGFNIKDSYMHWLRQGPEQGLEWIGWIDPENGDTEYAPKFQGKATFTTDTSSNTAYLQLSSLTSEDTAVYYCNEGTPTGPYYFDYWGQGTTVTVSSGGGGSGGGGSGGGGSENVLTQSPAIMSASPGEKVTITCSASSSVSYMHWYQQKPGTSPKLWIYSTSNLASGVPARFSGSGSGTSYSLTISRMEAEDAATYYCQQRSSYPLTFGGGTKLELKRAATPVSEKQLAEVVANTITPLMKAQSVPGMAVAVIYQGKPHYYTFGKADIAANKPVTPQTLFELGSISKTFTGVLGGDAIARGEISLDDAVTRYWPQLTGKQWQGIRMLDLATYTAGGLPLQVPDEVTDNASLLRFYQNWQPQWKPGTTRLYANASIGLFGALAVKPSGMPYEQAMTTRVLKPLKLDHTWINVPKAEEAHYAWGYRDGKAVRVSPGMLDAQAYGVKTNVQDMANWVMANMAPENVADASLKQGIALAQSRYWRIGSMYQGLGWEMLNWPVEANTVVETSFGNVALAPLPVAEVNPPAPPVKASWVHKTGSTGGFGSYVAFIPEKQIGIVMLANTSYPNPARVEAAYHILEALQ

These binders were tested against T1, CEA (carcinoembryonic antigen, …) (assay: CEA-coated plate at pH 6.5 and pH 7.4, bound BLA activity).
B1: binds. B2: binds. B3: binds. B4: binds.

These binders were tested against T1, CEA (carcinoembryonic antigen, …) (assay: CEA-coated plate, bound BLA activity (nitrocefin), cell lysate).
B5: binds. B6: binds. B7: binds. B8: binds.
